What follows are substances tested against HLA-A*02:01 (Homo sapiens, UniProt P04439, D140Y/D185E/D98H/E176V/E277Q/G131W/G231S/I119V/I121R/I166T/I218V/L300P/L318F/N151K/N90K/P208A/P217A/Q86G/Q94H/R138H/R169H/T345S) (assay: MHC binding assay (UV-ligand exchange, β2m ELISA, peptide exchange yield)). Conditions: binding of HLA-class I restricted peptides to HLA-A*02:01, UV-ligand exchange.
From the text: Candidate peptides for T cell based therapies according to the present invention were further tested for their MHC binding capacity (affinity). The individual peptide-MHC complexes were produced by UV-ligand exchange, where a UV-sensitive peptide is cleaved upon UV-irradiation, and exchanged with the peptide of interest as analyzed. Only peptide candidates that can effectively bind and stabilize the peptide-receptive MHC molecules prevent dissociation of the MHC complexes. To determine the yield of the exchange reaction, an ELISA was performed based on the detection of the light chain (β2m) of stabilized MHC complexes. The assay was performed as generally described in Rodenko et al. (Rodenko et al., 2006).
96 well MAXISorp plates (NUNC) were coated over night with 2 ug/ml streptavidin in PBS at room temperature, washed 4× and blocked for 1h at 37° C. in 2% BSA containing blocking buffer. […] Peptide-MHC monomers of the UV-exchange reaction were diluted 100 fold in blocking buffer. Samples were incubated for 1 h at 37° C., washed four times, incubated with 2 ug/ml HRP conjugated anti-β2m for 1h at 37° C., washed again and detected with TMB solution that is stopped with […]. Absorption was measured at 450 nm. Candidate peptides that show a high exchange yield (preferably higher than 50%, most preferred higher than 75%) are generally preferred for a generation and production of antibodies or fragments thereof, and/or T cell receptors or fragments thereof, as they show sufficient avidity to the MHC molecules and prevent dissociation of the MHC complexes.

Row | Substance | Peptide exchange (MHC class I binding score, peptide exchange yield)
1 | 66 (FLDENIGGVAV; listed as Homo sapiens) [compound 66] | “+++” (≥50 = +++)
2 | 67 (TLLAEALVTV; listed as Homo sapiens) [compound 67] | “+++” (≥50 = +++)
3 | 68 (SLMELPRGLFL; listed as Homo sapiens) [compound 68] | “++++” (≥75% = ++++)
4 | 69 (FQLDPSSGVLVTV; listed as Homo sapiens) [compound 69] | “+++” (≥50 = +++)
5 | 70 (GLLDYPVGV; listed as Homo sapiens) [compound 70] | “+++” (≥50 = +++)
6 | 71 (GILARIASV; listed as Homo sapiens) [compound 71] | “+++” (≥50 = +++)
7 | 72 (SLLELDGINL; listed as Homo sapiens) [compound 72] | “+++” (≥50 = +++)
8 | 73 (NIFDLQIYV; listed as Homo sapiens) [compound 73] | “+++” (≥50 = +++)
9 | 74 (ALLDPEVLSIFV; listed as Homo sapiens) [compound 74] | “+++” (≥50 = +++)
10 | 75 (GLLEVMVNL; listed as Homo sapiens) [compound 75] | “+++” (≥50 = +++)
11 | 76 (ILIDSIYKV; listed as Homo sapiens) [compound 76] | “+++” (≥50 = +++)
12 | 77 (ILVEADGAWVV; listed as Homo sapiens) [compound 77] | “++++” (≥75% = ++++)
13 | 78 (SLFSSLEPQIQPV; listed as Homo sapiens) [compound 78] | “+++” (≥50 = +++)
14 | 79 (SLFIGEKAVLL; listed as Homo sapiens) [compound 79] | “+++” (≥50 = +++)
15 | 80 (FLYDNLVESL; listed as Homo sapiens) [compound 80] | “++” (≥20% = ++)
16 | 81 (FLFSQLQYL; listed as Homo sapiens) [compound 81] | “++” (≥20% = ++)
17 | 82 (FLSSVTYNL; listed as Homo sapiens) [compound 82] | “+++” (≥50 = +++)
18 | 83 (ILAPTVMMI; listed as Homo sapiens) [compound 83] | “+++” (≥50 = +++)
19 | 84 (VTFGEKLLGV; listed as Homo sapiens) [compound 84] | “++” (≥20% = ++)
20 | 85 (KMSELRVTL; listed as Homo sapiens) [compound 85] | “+++” (≥50 = +++)
21 | 86 (NLIGKIENV; listed as Homo sapiens) [compound 86] | “+++” (≥50 = +++)
22 | 87 (ALPEAPAPLLPHIT; listed as Homo sapiens) [compound 87] | “++” (≥20% = ++)
23 | 88 (FLLVGDLMAV; listed as Homo sapiens) [compound 88] | “+++” (≥50 = +++)
24 | 89 (YILPTETIYV; listed as Homo sapiens) [compound 89] | “++++” (≥75% = ++++)
25 | 90 (TLLQIIETV; listed as Homo sapiens) [compound 90] | “+++” (≥50 = +++)
26 | 91 (IMQDFPAEIFL; listed as Homo sapiens) [compound 91] | “++++” (≥75% = ++++)
27 | 92 (YLIPFTGIVGL; listed as Homo sapiens) [compound 92] | “++” (≥20% = ++)
28 | 93 (LLQAIKLYL; listed as Homo sapiens) [compound 93] | “++” (≥20% = ++)

Second part, the substance after the results:

Row | Peptide exchange (MHC class I binding score, peptide exchange yield) | Substance
29 | “++” (≥20% = ++) | 94 (YLIDIKTIAI; listed as Homo sapiens) [compound 94]
30 | “+++” (≥50 = +++) | 95 (SVIPQIQKV; listed as Homo sapiens) [compound 95]
31 | “+++” (≥50 = +++) | 96 (YIFTDNPAAV; listed as Homo sapiens) [compound 96]
32 | “+++” (≥50 = +++) | 97 (SLINGSFLV; listed as Homo sapiens) [compound 97]
33 | “+++” (≥50 = +++) | 98 (LIIDQADIYL; listed as Homo sapiens) [compound 98]
34 | “++” (≥20% = ++) | 99 (ALVSKGLATV; listed as Homo sapiens) [compound 99]
35 | “++++” (≥75% = ++++) | 100 (YLLSTNAQL; listed as Homo sapiens) [compound 100]
36 | “+++” (≥50 = +++) | 101 (ILVGGGALATV; listed as Homo sapiens) [compound 101]
37 | “+++” (≥50 = +++) | 102 (YLFESEGLVL; listed as Homo sapiens) [compound 102]
38 | “+++” (≥50 = +++) | 103 (TLAEEVVAL; listed as Homo sapiens) [compound 103]
39 | “++++” (≥75% = ++++) | 104 (STMEQNFLL; listed as Homo sapiens) [compound 104]
40 | “+++” (≥50 = +++) | 106 (LLYDAVHIVSV; listed as Homo sapiens) [compound 106]
41 | “+++” (≥50 = +++) | 107 (FLQPVDDTQHL; listed as Homo sapiens) [compound 107]
42 | “++++” (≥75% = ++++) | 108 (ALFPGVALLLA; listed as Homo sapiens) [compound 108]
43 | “++++” (≥75% = ++++) | 109 (IILSILEQA; listed as Homo sapiens) [compound 109]
44 | “+++” (≥50 = +++) | 110 (FLSQVDFEL; listed as Homo sapiens) [compound 110]
45 | “+++” (≥50 = +++) | 111 (YVWGFYPAEV; listed as Homo sapiens) [compound 111]
46 | “+++” (≥50 = +++) | 113 (GLLPTPLFGV; listed as Homo sapiens) [compound 113]
47 | “++” (≥20% = ++) | 114 (SLVGEPILQNV; listed as Homo sapiens) [compound 114]
48 | “++” (≥20% = ++) | 115 (AIAGAGILYGV; listed as Homo sapiens) [compound 115]
49 | “+” (≥10% = +) | 116 (YHIDEEVGF; listed as Homo sapiens) [compound 116]
50 | “+++” (≥50 = +++) | 117 (ILPDGEDFLAV; listed as Homo sapiens) [compound 117]
